The chains are these.
B1: CPEB3 Ribozyme (parent)
chain: UAACAGGGGGCCACAGCAGAAGCGUUCACGUCGCAGCCCCUGUCAGAUUCUGGUGAAUCUGCGAAUUCUGCUGUAUAUCUC

In this data set the parent is B1. Put plainly: self-cleavage, relative activity (ratio to wild type); higher = more cleavage; in vitro, sequencing. The gist of the method:
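Relative activity compares each variant's cleaved/total read fraction with that of the unmutated ribozyme. To get these fractions, barcoded CPEB3 ribozyme libraries from rounds of error-prone PCR were transcribed with T7 RNA polymerase for 5 hours at 37°C and then given 15 min of DNase I treatment before EDTA was added. The RNAs were reverse transcribed with template switching and sequenced on Illumina, and DNA sequencing linked barcodes to variants. A minimum of 5 reads applied, and three batches were averaged.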
Turning to UAACAGGGGUCCACAGCAGAAGCGUUCACGUCUCAGCCCCUGUCAGAUUCUGGUGAAUCUGCGAAUUCUGCUGUAUAUCUC [G10U G33U], the self-cleavage was 0.1.

UAACAGGGGUCCACAGCAGAAGCGUUCACGUCACAGCCCCUGUCAGAUUCUGGUGAAUCUGCGAAUUCUGCUGUAUAUCUC [G10U G33A]: the self-cleavage amounted to 0.23.

Take UAACAGGGGUCCACAGCAGAAGCGUUCACGUCGCAGCCCCUGUCAGAUUCUGGUGAAUCUGCGAAUUCUGCCGUAUAUCUC [G10U U72C]: the self-cleavage was determined as 0.22.

UAACAGGGGUCCACAGCAGAAGCGUUCACGUCGCAGCCCCUGUCAGAUUCUGGUGAACCUGCGAAUUCUGCUGUAUAUCUC [G10U U58C]: the self-cleavage was 0.34.

On to UAACAGGGGUCCACAGCAGAAGCGUUCACGUCGCAGCGCCUGUCAGAUUCUGGUGAAUCUGCGAAUUCUGCUGUAUAUCUC [G10U C38G], for which the self-cleavage came to 0.17.

With UAACAGGGGUCCACAGCAGAAGCGUUCACGUCGCAGCCCCUGUCAGAUUCUGGUGAAUCUGCGAAUUCUGCUGUAUACCUC [G10U U78C], the self-cleavage was 0.39.

Take UAACAGGGGUCCACAGCAGAAGCGUUCACGUCGCAGCCCCUGUCAGAUUCUGGUGAAUCGGCGAAUUCUGCUGUAUAUCUC [G10U U60G]: the self-cleavage was 0.31.

Regarding UAACAGGGGUCCACAGCAGAAGCGUUCACGUCGCAGCCCCUGUCAGAUUCUGGUGAAUCCGCGAAUUCUGCUGUAUAUCUC [G10U U60C], the self-cleavage turned out to be 0.38.

Regarding UAACAGGGGGACACAGCAGGAGCGUUCACGUCGCAGCCCCUGUCAGAUUCUGGUGAAUCUGCGAAUUCUGCUGUAUAUCUC [C11A A20G], the self-cleavage is 0.21.

For the variant UAACAGGGGUCCACAGCAGAAGCGUUCACGUCGCAGCCCCUGUCAGAUUCUGGUGAAUCUGUGAAUUCUGCUGUAUAUCUC [G10U C62U], the self-cleavage stood at 0.13.

As to UAACAGGGGUCCACAGCAGAAGCGUUCACGUCGCAGCCCCUGCCAGAUUCUGGUGAAUCUGCGAAUUCUGCUGUAUAUCUC [G10U U43C], the self-cleavage came out at 0.34.

For the variant UAACAGGGGGACUCAGCAGAAGCGUUCACGUCGCAGCCCCUGUCAGAUUCUGGUGAAUCUGCGAAUUCUGCUGUAUAUCUC [C11A A13U], the self-cleavage stood at 0.34.

As to UAACAGGGGGACGCAGCAGAAGCGUUCACGUCGCAGCCCCUGUCAGAUUCUGGUGAAUCUGCGAAUUCUGCUGUAUAUCUC [C11A A13G], the self-cleavage was 0.09.

For the variant UAACAGGGGGACACAGCAGAAGCGUUCACGUCGCGGCCCCUGUCAGAUUCUGGUGAAUCUGCGAAUUCUGCUGUAUAUCUC [C11A A35G], the self-cleavage was 0.46.

In the case of UAACAGGGGGACACAGCAGAAGCGUUCACGUCGCUGCCCCUGUCAGAUUCUGGUGAAUCUGCGAAUUCUGCUGUAUAUCUC [C11A A35U], the self-cleavage stood at 0.1.

Consider UAACAGGGGUCCACAGCAGAAGCGUUCACGUCGCAGCCCCUGUCAGAUUCUGGUGAAUCUGCGAAAUCUGCUGUAUAUCUC [G10U U66A], for which the self-cleavage turned out to be 0.18.

Consider UAACAGGGGUCCACAGCAGAAGCGUUCACGUCGCAGCCCCUGUCAGAUUCUGGUGAAUCUGCGAAUUCUGCUGUAUAUCCC [G10U U80C], for which the self-cleavage was 0.23.

On to UAACAGGGGUCCACAGCAGAAGCGUUCACGUCGCAGCCCCUGUCAGAUUCUUGUGAAUCUGCGAAUUCUGCUGUAUAUCUC [G10U G52U], for which the self-cleavage turned out to be 0.09.

Take UAACAGGGGUCCACAGCAGAAGCGUUCACGUCGCAGCCCCUGUCAGAUUCCGGUGAAUCUGCGAAUUCUGCUGUAUAUCUC [G10U U51C]: the self-cleavage was 0.4.

For UAACAGGGGUCCACAGCAGAAGCGUUCACGUCGCAGCCCCUGUCAGGUUCUGGUGAAUCUGCGAAUUCUGCUGUAUAUCUC [G10U A47G], the self-cleavage came to 0.21.

For the variant UAACAGGGGUCCACAGCAGAAGCGUUCACGUCGCUGCCCCUGUCAGAUUCUGGUGAAUCUGCGAAUUCUGCUGUAUAUCUC [G10U A35U], the self-cleavage is 0.05.

With UAACAGGGGGACACAGCAGAAGCGUUCACGUCGCAGCCCCUGUCAGAUUCUGGUGAAUCUGCGUAUUCUGCUGUAUAUCUC [C11A A64U], the self-cleavage is 0.06.

Turning to UAACAGGGGGACACAGCAGAAGCGUUCACGUCGCAGCCCCUGUCAGAUUCUGGUGAAUCUGCGGAUUCUGCUGUAUAUCUC [C11A A64G], the self-cleavage was determined as 0.21.

As for UAACAGGGGUCCACAGCAGAAGCGUUCACGUCGCAGCCCCUGUCAGAAUCUGGUGAAUCUGCGAAUUCUGCUGUAUAUCUC [G10U U48A], the self-cleavage was 0.35.

Consider UAACAGGGGUCCACAGCAGAAGCGUUCACGUCGCAGCCCUUGUCAGAUUCUGGUGAAUCUGCGAAUUCUGCUGUAUAUCUC [G10U C40U], for which the self-cleavage was determined as 0.06.

With UAACAGGGGGACACAGCAGAAGCGUUCACGUCGCAGCCCCUGUCAGAUUCUGGUGAGUCUGCGAAUUCUGCUGUAUAUCUC [C11A A57G], the self-cleavage was determined as 0.33.

In the case of UAACAGGGGUCCACAGCAGAAGCGCUCACGUCGCAGCCCCUGUCAGAUUCUGGUGAAUCUGCGAAUUCUGCUGUAUAUCUC [G10U U25C], the self-cleavage was found to be 0.21.

With UAACAGGGGGACACAGCAGAAGCGUUCGCGUCGCAGCCCCUGUCAGAUUCUGGUGAAUCUGCGAAUUCUGCUGUAUAUCUC [C11A A28G], the self-cleavage is 0.1.

Consider UAACAGGGGGACACAGCAGAAGCGUUCUCGUCGCAGCCCCUGUCAGAUUCUGGUGAAUCUGCGAAUUCUGCUGUAUAUCUC [C11A A28U], for which the self-cleavage came out at 0.67.

For UAACAGGGGUCCACAGCAGAAGCGUCCACGUCGCAGCCCCUGUCAGAUUCUGGUGAAUCUGCGAAUUCUGCUGUAUAUCUC [G10U U26C], the self-cleavage turned out to be 0.28.

UAACAGGGGUCCACAGCAGAAGCGUACACGUCGCAGCCCCUGUCAGAUUCUGGUGAAUCUGCGAAUUCUGCUGUAUAUCUC [G10U U26A]: the self-cleavage turned out to be 0.32.

Turning to UAACAGGGGGACACAGCAGAAGCGUUCACGUCGCAGCCCCUGUCAGAUUCUGGUGGAUCUGCGAAUUCUGCUGUAUAUCUC [C11A A56G], the self-cleavage is 0.34.

For the variant UAACAGGGGGACACAGCAGAAGCGUUCACGUCGCAGCCCCUGUCAGAUUCUGGUGUAUCUGCGAAUUCUGCUGUAUAUCUC [C11A A56U], the self-cleavage was 0.12.

As to UAACAGGGGUCCACAGCAGAAGCGUUCACGUCGCAGCCCCUGUCAGAUUCUGGUGAAUCUGCGAAUUCUGCUGCAUAUCUC [G10U U74C], the self-cleavage came out at 0.46.

(Values after the RNAGym collection of RNA variant scans (doi:10.1093/nar/gkz1192).)
